The source of these data is PMC7155755, “Binding of the Human 14-3-3 Isoforms to Distinct Sites in the Leucine-Rich Repeat Kinase 2” (Frontiers in Neuroscience, 2020).

Square brackets hold non-standard residues; d marks the D form. Ends that are not written are not given here. fluorescein = N-terminal fluorescein label; pS = N[C@@H](COP(=O)(O)O)C(=O)O

Assay in all cases: fluorescence polarisation; direct binding; dilution series of 14-3-3 isoform (at least 5 μM down to picomolar) mixed with 1 nM fluorescein-labelled peptide; 20 mM MOPS pH 7, 150 mM NaCl, 0.005% CHAPS; 384-well plates
What all share (conditions): both partners purified
For orientation: Polarisation of emitted light reports the rotation of a fluorescent probe.

In assay [1] the target is T1, human 14-3-3 isoform ζ (recombinant, MBP tag removed) (human, UniProt P63104 1-245).
T1 construct: 14-3-3 zeta, human; Expressed from pMAL2CX plasmids; also called 14-3-3ζ; source: E. coli BL21DE3, purified (maltose-agarose, Factor Xa, anion exchange)
T1 sequence (looked up): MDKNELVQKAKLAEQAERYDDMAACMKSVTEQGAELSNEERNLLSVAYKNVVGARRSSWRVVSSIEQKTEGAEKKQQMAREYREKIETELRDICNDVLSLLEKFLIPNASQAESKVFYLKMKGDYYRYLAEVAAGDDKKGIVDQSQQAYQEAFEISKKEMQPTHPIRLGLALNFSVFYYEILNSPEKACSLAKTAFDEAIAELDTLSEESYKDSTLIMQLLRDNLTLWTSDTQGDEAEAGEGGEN

Assay [2] has as its target T2, human 14-3-3 isoform η (recombinant, MBP tag removed) (human, UniProt Q04917 1-246).
T2 construct: 14-3-3 eta, human; Expressed from pMAL2CX plasmids; also called 14-3-3η; source: E. coli BL21DE3, purified (maltose-agarose, Factor Xa, anion exchange)
T2 sequence (looked up): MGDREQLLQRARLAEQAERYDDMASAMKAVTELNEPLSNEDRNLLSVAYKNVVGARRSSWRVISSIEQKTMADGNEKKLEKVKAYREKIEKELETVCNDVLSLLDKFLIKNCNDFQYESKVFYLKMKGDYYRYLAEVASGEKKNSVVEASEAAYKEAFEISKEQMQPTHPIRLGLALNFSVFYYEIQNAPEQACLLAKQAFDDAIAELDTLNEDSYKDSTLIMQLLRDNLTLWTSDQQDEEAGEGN

The target in assay [3] is T3, human 14-3-3 isoform ε (recombinant, MBP tag removed) (human, UniProt P62258 1-255).
T3 construct: 14-3-3 epsilon, human; Expressed from pMAL2CX plasmids; also called 14-3-3ε; source: E. coli BL21DE3, purified (maltose-agarose, Factor Xa, anion exchange)
T3 sequence (looked up): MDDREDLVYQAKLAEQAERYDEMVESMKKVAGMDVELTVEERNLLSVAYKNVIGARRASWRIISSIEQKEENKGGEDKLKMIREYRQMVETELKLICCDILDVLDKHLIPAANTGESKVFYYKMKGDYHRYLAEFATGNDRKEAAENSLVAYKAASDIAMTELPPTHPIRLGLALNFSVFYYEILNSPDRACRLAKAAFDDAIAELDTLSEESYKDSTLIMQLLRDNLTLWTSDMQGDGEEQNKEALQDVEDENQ

Assay [4] concerns the target T4, human 14-3-3 isoform σ (recombinant, MBP tag removed) (human, UniProt P31947 1-248).
T4 construct: 14-3-3 sigma, human; Expressed from pMAL2CX plasmids; also called 14-3-3σ; source: E. coli BL21DE3, purified (maltose-agarose, Factor Xa, anion exchange)
T4 sequence (looked up): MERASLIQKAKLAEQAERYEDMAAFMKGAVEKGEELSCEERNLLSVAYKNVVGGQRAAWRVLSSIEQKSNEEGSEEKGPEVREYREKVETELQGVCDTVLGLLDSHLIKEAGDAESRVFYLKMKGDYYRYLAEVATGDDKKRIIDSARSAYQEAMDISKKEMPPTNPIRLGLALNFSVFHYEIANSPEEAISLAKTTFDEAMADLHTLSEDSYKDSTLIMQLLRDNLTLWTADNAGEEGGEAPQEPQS

In assay [5] the target is T5, human 14-3-3 isoform β (recombinant, MBP tag removed) (human, UniProt P31946 1-246).
T5 construct: 14-3-3 beta, human; Expressed from pMAL2CX plasmids; also called 14-3-3β; source: E. coli BL21DE3, purified (maltose-agarose, Factor Xa, anion exchange)
T5 sequence (looked up): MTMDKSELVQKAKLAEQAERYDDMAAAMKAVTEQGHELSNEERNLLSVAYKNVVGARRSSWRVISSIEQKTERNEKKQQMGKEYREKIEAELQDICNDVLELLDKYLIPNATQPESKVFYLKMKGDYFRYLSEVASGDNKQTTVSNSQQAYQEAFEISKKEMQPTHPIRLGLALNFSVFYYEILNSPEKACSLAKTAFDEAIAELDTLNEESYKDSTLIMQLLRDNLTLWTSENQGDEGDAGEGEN

For assay [6], the target named is T6, human 14-3-3 isoform θ (recombinant, MBP tag removed) (human, UniProt P27348 1-245).
T6 construct: 14-3-3 theta, human; Expressed from pMAL2CX plasmids; also called 14-3-3θ; source: E. coli BL21DE3, purified (maltose-agarose, Factor Xa, anion exchange)
T6 sequence (looked up): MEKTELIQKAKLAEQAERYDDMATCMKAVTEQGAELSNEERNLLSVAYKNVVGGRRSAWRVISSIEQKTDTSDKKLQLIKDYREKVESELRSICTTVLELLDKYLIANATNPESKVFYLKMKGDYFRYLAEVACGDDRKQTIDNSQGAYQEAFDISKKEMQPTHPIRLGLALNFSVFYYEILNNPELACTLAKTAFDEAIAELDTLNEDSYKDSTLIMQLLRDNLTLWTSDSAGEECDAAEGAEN

B1: pS910/pS935 (peptide)
peptide: fluorescein-KKSN[pS]ISVGEFYRDAVLQRCSPNLQRHSN[pS]LGPIF
notes: LRRK2-derived 35-mer covering S910 and S935, phosphorylated at both; source: synthetic peptide (Peps4LS GmbH)
On to B1, for which the Kd in assay [1] was 4.8 nM; in assay [2], 4.8 nM; in assay [3], 12.4 nM; in assay [4] it was 60.6 nM; in assay [5] it was 21.1 nM; in assay [6], 9.5 nM.

B2: Q930R/pS935 (peptide)
peptide: fluorescein-RCSPNLRRHSN[pS]LGPIFDH
notes: LRRK2-derived peptide with the possible pathogenic mutation Q930R, phosphorylated at S935; source: synthetic peptide (Peps4LS GmbH)
Regarding B2, the Kd in assay [1] came to 23.9 nM; in assay [2] it was 13.3 nM; in assay [3] it was 48.5 nM; in assay [4] it was 350 nM; in assay [5], 29.5 nM; in assay [6], 73.1 nM.

One may read the Kd as the concentration at which binding is half-saturated.
